According to patent US20260184777A1 (BEIJING SUNGEN BIOMEDICAL TECHNOLOGY, published 2026):
Residue numbers refer to the chain shown, from its start.

T1: human S100A8/A9 heterodimeric antigen, His-tagged (hS100A8/A9-His) (human, UniProt P05109 1-93; P06702 1-114)
T1 sequence 1: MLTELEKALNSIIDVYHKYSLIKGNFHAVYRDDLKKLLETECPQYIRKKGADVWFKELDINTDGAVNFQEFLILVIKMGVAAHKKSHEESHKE
T1 sequence 2: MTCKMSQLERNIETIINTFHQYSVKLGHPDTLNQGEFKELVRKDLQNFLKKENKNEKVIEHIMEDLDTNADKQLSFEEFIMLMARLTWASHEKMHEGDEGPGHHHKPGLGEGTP

T2: S100A1 (human, UniProt P23297 1-94)
T2 sequence (looked up): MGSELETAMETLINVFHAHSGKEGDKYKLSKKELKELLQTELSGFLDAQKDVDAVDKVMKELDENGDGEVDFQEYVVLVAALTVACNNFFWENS

B1: Anti-S100A8/A9 monoclonal antibody (antibody, human IgG4 S228P, lambda, V domains shown)
VH: not shown
VL: SYELTQPPSVSVAPGQTARITCSGDALGDKYASWYQQKPGQAPVLVIYEDSKRPSGIPERFSGSNSGNTATLTISGTQAEDEADYYCQSNDADSVWVFGGGTKLTVLG
notes: also called CM-1; parental antibody
B2: CM-22 (antibody, human IgG4 S228P, lambda, V domains shown)
VH: not shown
VL: B1 VL
B3: CM-17 (antibody, human IgG4 S228P, lambda, V domains shown)
VH: not shown
VL: B1 VL
B4: CM-30 (antibody, human IgG4 S228P, lambda, V domains shown)
VH: not shown
VL: B1 VL with S51A
B5: CM-19 (antibody, human IgG4 S228P, lambda, V domains shown)
VH: not shown
VL: B1 VL
B6: CM-31 (antibody, human IgG4 S228P, lambda, V domains shown)
VH: not shown
VL: B1 VL with S51H
B7: CM-27 (antibody, human IgG4 S228P, lambda, V domains shown)
VH: not shown
VL: B1 VL with E49Q
B8: CM-21 (antibody, human IgG4 S228P, lambda, V domains shown)
VH: not shown
VL: B1 VL
B9: CM-39 (antibody, human IgG4 S228P, lambda, V domains shown)
VH: not shown
VL: B1 VL with S94A
B10: CM-16 (antibody, human IgG4 S228P, lambda, V domains shown)
VH: not shown
VL: B1 VL
B11: CM-36 (antibody, human IgG4 S228P, lambda, V domains shown)
VH: not shown
VL: B1 VL with A92V
B12: CM-15 (antibody, human IgG4 S228P, lambda, V domains shown)
VH: not shown
VL: B1 VL
B13: CM-23 (antibody, human IgG4 S228P, lambda, V domains shown)
VH: not shown
VL: B1 VL
B14: CM-32 (antibody, human IgG4 S228P, lambda, V domains shown)
VH: not shown
VL: B1 VL with K52H
B15: CM-29 (antibody, human IgG4 S228P, lambda, V domains shown)
VH: not shown
VL: B1 VL with D50Q
B16: CM-35 (antibody, human IgG4 S228P, lambda, V domains shown)
VH: not shown
VL: B1 VL with Q88D
B17: CM-20 (antibody, human IgG4 S228P, lambda, V domains shown)
VH: not shown
VL: B1 VL
B18: CM-28 (antibody, human IgG4 S228P, lambda, V domains shown)
VH: not shown
VL: B1 VL with D50H
B19: CM-37 (antibody, human IgG4 S228P, lambda, V domains shown)
VH: not shown
VL: B1 VL with A92L
B20: CM-24 (antibody, human IgG4 S228P, lambda, V domains shown)
VH: not shown
VL: B1 VL
B21: CM-26 (antibody, human IgG4 S228P, lambda, V domains shown)
VH: not shown
VL: B1 VL with Y31F
B22: CM-33 (antibody, human IgG4 S228P, lambda, V domains shown)
VH: not shown
VL: B1 VL with K52R
B23: CM-38 (antibody, human IgG4 S228P, lambda, V domains shown)
VH: not shown
VL: B1 VL with A92I
B24: CM-25 (antibody, human IgG4 S228P, lambda, V domains shown)
VH: not shown
VL: B1 VL
B25: CM-18 (antibody, human IgG4 S228P, lambda, V domains shown)
VH: not shown
VL: B1 VL
B26: CM-34 (antibody, human IgG4 S228P, lambda, V domains shown)
VH: not shown
VL: B1 VL with K52P

Target: T1, human S100A8/A9 heterodimeric antigen, …
Assay: not given

| Binder | Kd [nM] |
| --- | --- |
| B1 | 8.95 |

Target: monkey S100A8/A9 heterodimeric antigen (cS100A8/A9) (monkey)
Assay: not given

| Binder | Kd [nM] |
| --- | --- |
| B1 | 22.8 |

Target: T2, S100A1
Assay: not given

| Binder | binding result |
| --- | --- |
| B1 | no binding (tested: 20 µg/mL) |

Target: plague (UniProt P26948 22-170)
Assay: not given

| Binder | binding result |
| --- | --- |
| B1 | no binding (tested: 20 µg/mL) |

Target: T1, human S100A8/A9 heterodimeric antigen, …
Assay: cell-based or functional assay

| Binder | IC50, inhibition of IL-6 release from hS100A8/A9-activated human PBMCs [µg/mL] |
| --- | --- |
| B2 | 0.162 |
| B3 | 0.32 |
| B4 | 0.434 |
| B5 | 0.619 |
| B6 | 0.48 |
| B7 | 0.253 |
| B8 | 0.01 |
| B9 | 0.452 |
| B10 | 0.457 |
| B11 | 0.393 |
| B12 | 0.477 |
| B13 | 0.024 |
| B14 | 0.536 |
| B15 | 2 |
| B16 | 0.655 |
| B17 | 0.43 |
| B18 | 1.74 |
| B19 | 0.335 |
| B20 | 0.67 |
| B21 | 0.168 |
| B22 | 0.452 |
| B23 | 0.084 |
| B24 | 0.471 |
| B25 | 0.109 |
| B26 | 1.22 |
